{"source": "paper PMC4519920", "origin": "cited, not measured here", "target": "hsp70 (UniProt P0DMV8)", "sequence (P0DMV8 2-641)": "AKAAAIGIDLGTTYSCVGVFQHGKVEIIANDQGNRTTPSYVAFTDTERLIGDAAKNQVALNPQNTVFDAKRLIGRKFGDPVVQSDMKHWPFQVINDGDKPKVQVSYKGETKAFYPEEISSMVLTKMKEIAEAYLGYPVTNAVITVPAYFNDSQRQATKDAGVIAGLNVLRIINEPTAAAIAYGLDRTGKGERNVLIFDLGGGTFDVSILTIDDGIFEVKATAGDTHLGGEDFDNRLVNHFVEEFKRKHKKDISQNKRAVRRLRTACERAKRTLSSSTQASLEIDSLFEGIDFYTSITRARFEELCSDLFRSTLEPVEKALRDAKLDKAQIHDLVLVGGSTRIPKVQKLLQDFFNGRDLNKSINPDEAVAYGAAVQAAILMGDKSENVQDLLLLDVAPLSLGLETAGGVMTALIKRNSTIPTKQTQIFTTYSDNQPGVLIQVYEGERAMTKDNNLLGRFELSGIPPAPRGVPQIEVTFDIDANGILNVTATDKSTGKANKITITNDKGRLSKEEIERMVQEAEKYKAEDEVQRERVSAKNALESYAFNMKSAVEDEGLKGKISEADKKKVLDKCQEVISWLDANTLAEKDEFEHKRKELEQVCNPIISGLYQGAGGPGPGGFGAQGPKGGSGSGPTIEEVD"}
{"substance": "Nucleoprotein NTAIL Box2 (from UniProt P35972)", "values": [{"measurement": "Kd", "result": 10, "unit": "nM"}]}
